Measured values published in patent US7098031.

System: PI-SceI meganuclease
Experiment: cell_activity
Conditions: mouse eggs, purified protein co-injected, DNA/protein 1:25; 3 of 10 embryos; indirect evidence of cleavage

## PI-SceI sites in PIFFLago
  activity (% transgenic embryos): 30
